Measured values taken from the supplement of paper PMC10567573.

B1: INTS3 (parent)
chain: FSDDEEDLNSKGKKREFRFHPIKE
B2: SNAP91 (parent)
chain: FAAPSPATTASPAKVDSSGVIDLF

Variants of: B1
Experiment: protein stability index of a GFP-peptide fusion (GPS, HEK-293T) (PSI 1-6); higher = more stable
Conditions: c terminus: a fixed tail appended
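Further: lentivirally expressed fusions sorted by FACS into six bins by GFP to DsRed ratio, PSI derived from sequencing read proportions per bin multiplied by bin number.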

Protein stability index, by site and new letter:
K23: A 3.81, Q 3.18, C 3.43, M 3.5, L 2.95, H 3.34, N 3.18, W 2.75, I 2.93, P 3.06, T 3.52, R 2.68, E 3.64, V 3.06, F 3.4, S 3.19, D 4.1, Y 2.91, G 3.19
E24: K 2.14, V 2.07, H 2.2, W 2.45, C 2.18, F 1.91, P 1.76, Q 2.35, Y 2.72, M 1.8, S 2.11, D 3.07, N 2.69, R 2.31, A 2.2, G 2.17, T 1.81, I 2.06, L 2.14
I22: P 3.25, Y 2.48, W 2.33, K 2.81, M 3.2, S 2.63, V 3.07, R 3, T 3.29, L 3.19, Q 3.32, N 2.88

Variants of: B2
Experiment: as above
Conditions: c terminus: a fixed tail appended

Protein stability index of substitutions, site by site:
A2: W 1.99, R 2.89, H 1.63, G 3.57, T 3.36, D 3.57, P 3.03, M 2.27, I 2.03, K 3.08, S 2.97, Q 2.17, N 3.45, C 1.69, Y 2.09, V 1.69, L 2.56, F 2.44, E 4.29
T8: K 2.42, V 2.85, L 2.27, H 3.12, Y 1.94, D 2.65, C 2.56, I 2.85, M 2.7, R 2.24, F 1.33, W 2.33, E 2.23, Q 2.54, A 2.62, N 2.58, G 2.3, S 2.52
A3: N 1.86, H 2.23, D 2.29, S 2.61, W 2.09, Y 1.79, R 2.12, K 2.38, C 1.99, V 2.46, P 2.44, F 1.62, G 2.32, M 1.92, I 2.28, L 2.33, Q 2.31, E 2.17, T 2.6
S11: I 2.3, R 2.45, K 2.6, C 2.14, G 2.45, Q 2.56, N 2.38, E 2.69, A 2.47, V 2.38, H 2.08, W 1.33, D 2.73, Y 2.35, M 2.28, T 2.48, F 1.96, L 2.77
F1: Q 4.28, A 3.95, E 4.39, G 4.43, T 4.13, R 2.94, W 3.01, K 4.14, M 3.76, N 3.79, V 3.9, C 3.82, Y 2.3, D 4.3, S 3.56, L 3.4, H 3.86, I 3.47
P6: W 2.35, K 2.16, Q 2.63, L 1.49, I 1.84, V 1.82, S 2.65, D 3.01, A 2.18, R 1.95, C 2.32, T 2.23, N 2.94, G 2.31, M 2.44, Y 1.7, E 3.08, F 2.02, H 2.36
S5: G 2.45, V 2.64, F 1.97, H 1.96, N 2.59, M 2.24, E 3.18, K 2.66, A 2.51, W 2.62, D 3, L 2.81, R 2.1, I 1.95, C 2.16, Q 2.34, Y 1.96
V15: N 2.52, W 2.1, M 2.56, K 2.92, F 1.97, T 2.82, E 3.03, L 2.23, H 2.32, P 2.65, A 2.52, G 2.41, S 2.93, D 2.68, R 2.6, I 2.24, C 1.97, Q 2.04, Y 1.98
P12: W 2.04, D 2.6, V 2.09, G 1.92, L 2.49, M 2.17, Y 1.97, N 2.6, K 1.96, R 2.2, A 2.19, E 2.97, C 1.85, I 2.08, T 2.15, Q 2.6, S 2.32, F 1.8, H 2.27
D16: A 1.9, C 1.54, H 2.82, G 2.11, F 1.68, E 2.17
P4: F 1.61, E 2.23, S 1.71, L 1.93, C 1.56, N 2.43, T 1.67, I 1.77, G 1.95, K 2.08, W 1.76, Q 2.2, M 2.18, V 2.13, D 2.33, A 1.79, R 2.12, H 2.26, Y 1.38
A13: I 1.92, C 2.29, F 2.01, P 3.09, R 2.34, H 2.3, N 2.38, V 2.79, L 2.43, D 2.71, Y 1.83, K 3.05, G 1.98, W 2.12, Q 2.37, S 2.25, M 2.31, E 2.61, T 2.33
A7: W 3, V 2.53, D 2.25, G 2.85, C 1.75, P 2.62, E 3.06, R 2.36, T 2.11, I 2.1, Q 2.84, F 2.65, N 2.46, K 2.65, L 1.9, M 2.23, H 2.7, S 2.49, Y 2.54
T9: I 2.16, Q 2.46, K 2.91, F 1.63, D 3.22, H 2.66, A 3.02, N 2.58, R 2.42, L 2.25, W 3.89, C 2.43, G 2.28, E 2.77, M 2.31, Y 1.67, V 2.61, S 2.77
A10: L 2.74, C 1.94, N 2.59, G 1.64, W 2.84, S 2.32, T 2.36, D 2.57, E 2.56, V 2.94, Q 2.27, H 2.29, M 2.24, K 2.23, F 1.92, R 1.99, I 2.42, Y 1.72
K14: Q 2.48, N 2.52, R 2.28, L 2.28, P 2.7, V 2.77, I 2.61, H 2.46, S 2.29, M 2.3, G 2.05, Y 2.24, D 2.47, A 2.94, C 2.41, F 1.86, E 2.81, W 1.58, T 2.38
